Here are results for 2 substances from article PMC10798858.

The assay addresses Laa1-myc (budding yeast (S. cerevisiae)) (UniProt P39526). In words: co-IP.
Sequence of UniProt P39526 (P39526 whole entry, the tested form may be a part): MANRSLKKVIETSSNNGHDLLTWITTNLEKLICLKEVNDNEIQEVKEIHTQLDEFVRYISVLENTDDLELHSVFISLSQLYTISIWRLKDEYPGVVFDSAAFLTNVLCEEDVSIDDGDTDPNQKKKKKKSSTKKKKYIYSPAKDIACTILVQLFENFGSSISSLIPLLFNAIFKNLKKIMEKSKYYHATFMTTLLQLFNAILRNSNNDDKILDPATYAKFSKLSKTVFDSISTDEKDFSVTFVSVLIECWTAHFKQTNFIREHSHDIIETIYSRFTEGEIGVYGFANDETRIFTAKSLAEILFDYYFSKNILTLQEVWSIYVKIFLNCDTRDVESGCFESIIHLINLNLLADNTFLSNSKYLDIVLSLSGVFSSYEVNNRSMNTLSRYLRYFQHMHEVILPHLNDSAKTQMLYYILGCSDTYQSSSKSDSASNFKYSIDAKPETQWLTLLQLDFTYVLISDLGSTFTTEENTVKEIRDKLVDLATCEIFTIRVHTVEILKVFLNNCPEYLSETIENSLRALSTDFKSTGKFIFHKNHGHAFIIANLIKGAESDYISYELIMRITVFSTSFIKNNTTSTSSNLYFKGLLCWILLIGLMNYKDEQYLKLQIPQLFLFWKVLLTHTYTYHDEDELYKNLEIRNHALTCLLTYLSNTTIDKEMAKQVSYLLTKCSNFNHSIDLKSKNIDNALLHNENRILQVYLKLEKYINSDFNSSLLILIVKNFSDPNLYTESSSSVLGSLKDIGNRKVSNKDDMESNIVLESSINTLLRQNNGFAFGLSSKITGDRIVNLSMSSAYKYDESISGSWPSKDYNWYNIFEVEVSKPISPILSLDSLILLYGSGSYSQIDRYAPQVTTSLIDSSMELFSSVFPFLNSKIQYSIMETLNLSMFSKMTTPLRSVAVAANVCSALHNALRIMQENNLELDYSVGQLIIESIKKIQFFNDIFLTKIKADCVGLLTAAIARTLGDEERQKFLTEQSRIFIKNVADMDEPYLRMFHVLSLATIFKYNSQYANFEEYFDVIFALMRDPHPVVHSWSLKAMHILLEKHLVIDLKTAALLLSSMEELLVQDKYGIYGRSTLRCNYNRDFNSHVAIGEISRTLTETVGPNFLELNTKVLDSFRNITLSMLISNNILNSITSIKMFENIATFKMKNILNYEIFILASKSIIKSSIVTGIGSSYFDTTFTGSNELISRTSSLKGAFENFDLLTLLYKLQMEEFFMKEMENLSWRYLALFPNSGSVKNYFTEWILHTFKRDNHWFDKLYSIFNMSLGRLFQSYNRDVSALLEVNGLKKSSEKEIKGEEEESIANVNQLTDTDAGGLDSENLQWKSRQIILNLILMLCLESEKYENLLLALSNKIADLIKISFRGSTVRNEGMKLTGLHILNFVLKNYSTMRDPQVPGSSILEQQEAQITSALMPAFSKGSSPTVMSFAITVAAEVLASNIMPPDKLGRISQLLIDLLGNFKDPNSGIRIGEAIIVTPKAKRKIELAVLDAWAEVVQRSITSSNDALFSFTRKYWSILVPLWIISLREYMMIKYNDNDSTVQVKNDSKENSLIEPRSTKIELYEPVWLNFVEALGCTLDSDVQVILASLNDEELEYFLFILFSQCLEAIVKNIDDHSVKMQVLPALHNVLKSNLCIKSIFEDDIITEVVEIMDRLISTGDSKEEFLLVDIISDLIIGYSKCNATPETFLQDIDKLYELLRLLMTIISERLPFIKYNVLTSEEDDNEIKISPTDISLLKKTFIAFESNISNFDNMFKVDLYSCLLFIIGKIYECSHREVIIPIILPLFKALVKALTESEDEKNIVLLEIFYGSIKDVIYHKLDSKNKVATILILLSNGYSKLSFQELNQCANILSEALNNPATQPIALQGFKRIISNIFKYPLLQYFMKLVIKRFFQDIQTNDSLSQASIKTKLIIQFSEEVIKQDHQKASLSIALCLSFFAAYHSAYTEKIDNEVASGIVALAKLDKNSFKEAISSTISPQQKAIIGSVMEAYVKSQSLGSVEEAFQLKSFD

“Lft1-ΔHR1 tagged with 6-HIS-TEV-3FLAG (HTF) (from UniProt Q03703 1-340) (natural protein)”: the interaction with Laa1, percent of wild type (% of wild-type levels) stood at 60.
The value for “Lft1-ΔHR3 tagged with 6-HIS-TEV-3FLAG (HTF) (from UniProt Q03703 1-340) (natural protein)” was 60.
